Our source for the binding signal values is PMC9104551.

The subject of this data set is XylR (ROK family transcriptional regulator) (Paenibacillus polymyxa ATCC842). In words: EMSA. The settings on record: Chemiluminescent EMSA Kit (Beyotime), biotinylated PCR probes; XylR 0.02-0.1 g/L (protein:probe 20.9-104.4) for BST/DTE; buffer, pH, temperature not stated.

The substance -1C (A/T to C/G outside site) gave a binding signal of 50.8 % bound. Consider -1G (A/T to G/C outside site), for which the binding signal was 64.5 % bound.

On to -1T (A/T to T/A outside site), for which the binding signal came out at 61.3 % bound. Then -2C (A/T to C/G outside site), with 57.6 % bound; and -2G (A/T to G/C outside site), with 60.8 % bound; and -2T (A/T to T/A outside site), with 65.4 % bound. In the case of BST 1C (A/T to C/G), the binding signal is 19.8 % bound. The substance BST 1G (A/T to G/C) returned a binding signal of 18.8 % bound. Consider BST 1T (A/T to T/A), for which the binding signal worked out at 30 % bound. In turn, BST 17A (G71A) gave a binding signal of 1.9 % bound. On to BST 17C (G71C), for which the binding signal was 63.5 % bound. The substance BST 17T (G71T) gave a binding signal of 52.1 % bound. Under BST (full predicted site) stands 70 % bound.
